The text below walks through data of patent publication US20030130324A1, “METHOD FOR PREVENTING OR CONTROLLING CATARACT” (priority 1993, published 2003).

The test system of assay [1] is lens epithelial explants. Briefly: Lens epithelial explants cultured on laminin substratum with TGFβ and/or FGF. Conditions: explants from 21-day-old rats, TGFβ 20 ng/ml, in the presence or absence of FGF 2 ng/ml, 5 day culture. The class given is cell-based, rat. The procedure:
(§1) Each experiment involved culturing explants for up to 5 days without added growth factors (controls), with TGFβ, with a combination of TGFβ and FGF (TGFβ/FGF), or with FGF alone. FGF is another growth factor that influences lens cell behaviour (Chamberlain and McAvoy, 1989; McAvoy et al., 1991). In some experiments, explants were prepared by a standard method used in our laboratory in which the adhering capsule serves as the substratum for the cells. In others, explants were inverted onto a laminin substratum. The latter method allows cell attachment, spreading and migration to be monitored as well as providing good visualisation of individual cells.
Bovine brain basic FGF was prepared and stored at −20° C. as described by Chamberlain and McAvoy (1989). Ultrapure natural human TGFβ1 was obtained from Genzyme (Cambridge, Mass.) and stored at −80° C. Working stock solutions of TGFβ and FGF were prepared (in culture medium or 1% bovine serum albumin—0.5 M NaCl in phosphate-buffered saline, respectively) and centrifuged at 10,000 g for 10 min at 4° C. just before use.
This method is as described by Hales et al (1992) Briefly, on the day before the experiment, culture dishes were pre-coated with laminin. […] Responses were monitored daily by phase contrast microscopy.

In assay [2] the test system is lens epithelial explants. Briefly: Influence of TGFβ alone and in combination with FGF on lens epithelial explants (standard method). Format: cell-based, rat. Conditions: TGFβ 20 ng/ml, up to 5 days culture; summary of Example 1. The procedure:
Lens explants were prepared from both postnatal and adult rats and changes during 5 days culture with growth factor(s) were monitored by light and electron microscopy, immunolocalisation of laminin, heparan sulphate proteoglycan and fibre-specific crystallins, and crystallin ELISAs.
as §1, with “individual cells. […]” for “individual cells.”
Explants used for immunofluorescent localisation were collected at the end of the culture period, fixed in Carnoy's fixative for 20 min at room temperature, transferred to 70% ethanol, then covered with a drop of melted 2.5% agar, before dehydrating in ethanol and embedding in paraffin. […] Controls for non-specific fluorescence were included routinely, that is, sections were treated with non-immune rabbit serum instead of specific antibody. […]

In assay [3] the test system is TGFβ-induced cataract-like changes in rat lens epithelial explants. Briefly: Explant study using α2-macroglobulin to inhibit TGFβ-induced cataract-like changes. The class given is cell-based. Details: key to cataract-like changes: extent of spindle-like elongation: −, negligible change or reverted to predominantly epithelial morphology; +-++++, indicates extent of spindle-like elongation; +-++++, indicates extent of spindle-like elongation; +-++++, indicates extent of spindle-like elongation; +-++++, indicates extent of spindle-like elongation; †-††††, indicates extent of cell loss; †-††††, indicates extent of cell loss; †-††††, indicates extent of cell loss; †-††††, indicates extent of cell loss; o, elongation assessment was invalidated by cell loss. As to the method:
α2-macroglobulin prepared from bovine plasma was obtained from Boehringer Mannheim Australia (Castle Hill, NSW; #602 442). Lens epithelial explants (2 per culture dish) were prepared from 21-day-old rats as described previously (See Example 1, Standard Method). α2-macroglobulin was dissolved in culture medium (defined in Example 1) at a final concentration of 400 μg/ml. The solution was sterilised by passing through a 0.22 μm filter and a portion was diluted with an equal volume of sterile medium. These solutions were equilibrated at 37° C. in 5% CO2/air before use. A stock solution containing 25 pg/10 μl TGFβ2 (Genzyme, Cambridge, Mass.) was prepared in sterile medium. Six treatment groups were then set up by replacing medium in culture dishes containing explants with 1 ml medium or 1 ml medium containing 200 or 400 μg/ml α2-macroglobulin, with or without added TGFβ, as indicated in Table 2. Explants were cultured and monitored for cataract-like changes by phase contrast microscopy. In particular, each explant was graded according to the extent of spindle-like elongation and cell death, which are characteristically observed in explants cultured with TGFβ (See Examples 1 and 2). Explants were photographed on days 3-5.

Setting [4] is: Day 4, TGFβ2 25 pg/ml, α2-MG 200 μg/ml.
Where [5] appears, read: Day 4, TGFβ2 25 pg/ml, α2-MG 400 μg/ml.
Where [6] appears, read: Day 5, TGFβ2 25 pg/ml, α2-MG 200 μg/ml.
Where [7] appears, read: Day 5, TGFβ2 25 pg/ml, α2-MG 400 μg/ml.

Take “TGFβ: Ultrapure natural human TGFβ1 obtained from Genzyme (Example 1)”: in the assay on lens epithelial explants [1], the “cell spreading and migration onto laminin substratum” value was “inhibited spreading and migration”. Further, in the assay with lens epithelial explants [2], the “cell elongation in explants” value was “extensive and rapid elongation”; the “other TGFβ-induced cataract-like responses in explants” value was “induced accumulation of extracellular matrix, capsule wrinkling, cell death by apoptosis and distinctive arrangements of cells”.

B1: α2-macroglobulin (protein, UniProt Q7SIH1 24-1510, looked up)
Alpha-2-macroglobulin: SVSGKPQYMVLVPSLLHTETPEKGCLLLSHLNETVTVSASLESVRENRSLFTDVVAEKDLFHCVSFTLPRSPTSQEVMFLTIQVKGPTQEFKKRTTVLVKNEESLVFVQTDKPIYKPEQTVKFRIVLLDESFHPLNELVPLVYVEDPKGNRIAQWQNLEVENGLQQLTFPLSSEPFQGSYKVVVQKGSGGTAEHPFTVEEFVLPKFEVQVRMPKIITILEEEVQVSVCGLYTYGKPVPGRVTMNMCRKYRNPSNCYGEESNAVCEKFSGELNNEGCFSQQVNTKIFQLKRQEFEMKIEVEAKIQEEGTEVELTGKGATEITTTITKLSFVTVDSNLRRGIPFTGKVLLVDGKGVPMPNKVIFITANEANHNSNTTTDEHGLAQFSITTTKIKGTSLSIRVKYKDHSPCYGYQWLSEEHQDAYHSANLVFSRSNSFVYLEPLPRELPCGKTQTVQAHYVLKGQVLKDLKELVFYYLIMAKGGIVRSGTHTLPVEQGDMQGHFSMSVPVESDIAPVARLLIYAILPDGEVVGDSARYEIEHCLANKVGLNFSPGQSFPASQAHLRVTASPQSLCALRAVDQSVLLMRPEAELSAATVYNLLPVKDLSSFPSSVNQQEEDNEDCISHDNVYINGIMYFPVSNTNEKDMYSFLQDMGLKAFTNSKIHKPKICPQPEEHRIQHHTLLASPVRAEMGRNRDFVHFDDTSEPPTETVRKYFPETWIWDLVVVSSSGVHEVEVTVPDTITEWKAGALCLSRDTGLGLSPTASLRVFQPFFVELTMPYSVIRGEAFTLKATVLNYLPKCIRVSVQLEASPAFLAVPEKEQETYCICGNGRQTVSWAVTPKSLGNVNFTVSAEAVESQELCGSEVPVVPEHGRKDTIIKPLLVEPEGLEKEVIFNSLLCPSVDFVFLGAEDGGQVLRHFPPAAATDTAADAHDPARPGAKVSESLSLKLPPNVVEESARASFSVLGDILGSAMRNTQNLLQMPYGCGEQNMARFAPNIYVLDYLNETQQLTAELKSKAILYLNTGYQRQLLYKHFDGSYSTFGEHRGNSEGNTWLTAFVLKSFAQARGYIFIDEAHITEALTWLAQKQKSNGCFRSTGTLLNNAIKGGVDDEVTLSAYITIALLEMPLPVTHPVVRNALFCLDSAWKSAKEGSQGSHVYTKALLAYAFALAGNQERRTEVLTSLYEEAVKEDNTIHWTRPQKPRLLTEDIYQPRAPSAEVEMTAYVILAHVTAQPAPNPEDLKRATSIVKWISKQQNCQGGFSSTQDTVVALHALSRYGAATFTSARKAAQVTIQSSGTFSTKFQVENSNRLLLQQVSLPEVPGEYSMSVTGEGCVYLQTSLKYNILPKKDEFPFALEVQTLPQTCDGPKAHTSFQISLSVSYIGSRPASNMAIVDVKMVSGFIPLKPTVKMLERSNVSRTEVSNNHVLIYLDKVTNETLTLTFTVLQDIPVRDLKPAIVKVYDYYETDEFAVAEYSAPCSKDIGNA
notes: α2-macroglobulin prepared from bovine plasma, Boehringer Mannheim Australia #602 442
For the molecule B1, the “cataract-like changes: extent of spindle-like elongation” value in assay [3] (Day 2, TGFβ2 0 pg/ml, α2-MG 200 μg/ml) is given as “−”; in assay [3] (Day 2, TGFβ2 0 pg/ml, α2-MG 400 μg/ml), “−”; in assay [3] (Day 2, TGFβ2 25 pg/ml, α2-MG 200 μg/ml), “−”; in assay [3] (Day 2, TGFβ2 25 pg/ml, α2-MG 400 μg/ml), “−”; in assay [3] (Day 3, TGFβ2 0 pg/ml, α2-MG 200 μg/ml), “−”; in assay [3] (Day 3, TGFβ2 0 pg/ml, α2-MG 400 μg/ml), “−”. Also, the “cataract-like changes: extent of spindle-like elongation” value in assay [3] (Day 3, TGFβ2 25 pg/ml, α2-MG 200 μg/ml) is on record as “+ (+-++++, indicates extent of spindle-like elongation)”; in assay [3] (Day 3, TGFβ2 25 pg/ml, α2-MG 400 μg/ml), “+ (+-++++, indicates extent of spindle-like elongation)”; in assay [3] (Day 4, TGFβ2 0 pg/ml, α2-MG 200 μg/ml), “−”; in assay [3] (Day 4, TGFβ2 0 pg/ml, α2-MG 400 μg/ml) it was “−”; in assay [3] (setting [4]) it was “+ (+-++++, indicates extent of spindle-like elongation)”; in assay [3] (setting [5]), “+ (+-++++, indicates extent of spindle-like elongation)”. Moreover, the “cataract-like changes: extent of spindle-like elongation” value is “−” in assay [3] (Day 5, TGFβ2 0 pg/ml, α2-MG 200 μg/ml); “−” in assay [3] (Day 5, TGFβ2 0 pg/ml, α2-MG 400 μg/ml); “−” in assay [3] (setting [6]); “−” in assay [3] (setting [7]). Further, the “cataract-like changes: extent of cell loss” value in assay [3] (setting [4]) was “† (†-††††, indicates extent of cell loss)”; in assay [3] (setting [5]), “† (†-††††, indicates extent of cell loss)”; in assay [3] (setting [6]) it was “† (†-††††, indicates extent of cell loss)”; in assay [3] (setting [7]) it was “† (†-††††, indicates extent of cell loss)”. In assay [3] (TGFβ2 25 pg/ml, α2-macroglobulin 200 or 400 μg/ml, days 2-5), the “inhibition of TGFβ-induced changes” value is on record as “substantially inhibited”. Moreover, in assay [3] (medium containing α2-macroglobulin 200 or 400 μg/ml, no TGFβ, throughout the culture period), the “changes in explants cultured without TGFβ” value is listed as “No significant changes”.
